Laboratory results from PMC11044963, “Probing the CRL4^DCAF12 interactions with MAGEA3 and CCT5 di-Glu C-terminal degrons” (PNAS Nexus, 2024).
Where no end group is shown, it is not given here. The star is where a group is joined. FITC = O=C1OC2(c3ccc(O)cc3Oc3cc(O)ccc32)c2ccc(NC(=S)*)cc21

How the values were obtained:
Conditions in all cases: both partners purified
[1] = target: T1, biotinylated DCAF12 (Δ1–78) (human, UniProt Q5T6F0 79-453, biotin); test: SPR; biotinylated DCAF12 (Δ1–78) immobilised (~3,200 RU) on a streptavidin chip, Biacore 8K+; peptides injected, 8-point two-fold series from 1 µM; 10 mM HEPES pH 7.4, 150 mM NaCl, 3 mM EDTA, 0.005% P20, 5% glycerol, 2% DMSO; 15 °C; 1:1 Langmuir fit
T1 construct: DDB1- and CUL4-associated factor 12 (DCAF12), human, residues 79-453 (Δ1-78); also called DCAF12:79-453aa; DCAF12 Δ1–78 (pFBD-BirA); source: Sf9 (pFBD-BirA vector), purified (TALON beads, Superdex S200 26/60)

[2] = target: T2, DCAF12 (Δ1–78) (human, UniProt Q5T6F0 79-453); test: fluorescence polarisation; direct binding; protein titrated from 4 µM in two-fold steps against 20 nM FITC peptide; 20 mM Tris pH 7.5, 150 mM NaCl, 5% glycerol, 0.5 mM TCEP, 0.01% Triton; 45 min at room temperature
T2 construct: DDB1- and CUL4-associated factor 12 (DCAF12), human, residues 79-453 (Δ1-78); also called DCAF12:79-453aa; N-terminally truncated DCAF12; source: Sf9 (baculovirus, pFBOH-MHL), purified (TALON beads, Superdex S200 26/60)

[3] = target: DDB1–DCAF12 complex (human, UniProt Q5T6F0 1-453; Q5T6F0 1-453); test: as above

B1: unlabeled MAGEA3 C-terminal degron peptide (peptide)
peptide: LHEWVLREGEE
notes: 11 C-terminal residues of melanoma-associated antigen 3 (MAGEA3); also called MAGEA3 peptide
Kd [1]: 161 nM

B2: FITC-labeled CCT5 C-terminal degron peptide (peptide)
peptide: {FITC}-IRKPGESEE
notes: nine C-terminal residues of T-complex protein 1 subunit epsilon (CCT5); also called CCT5 peptide
Kd [2]: 370 nM
Kd [3]: 80 nM

B3: unlabeled CCT5 C-terminal degron peptide (peptide)
peptide: IRKPGESEE
notes: as for B2
Kd [1]: 60 nM

B4: FITC-labeled MAGEA3 C-terminal degron peptide (peptide)
peptide: {FITC}-LHEWVLREGEE
notes: as for B1
Kd [2]: 520 nM
Kd [3]: 180 nM
